# Changes are numbered by the printed parent chain.
# B1: 3F9-18 (antibody, human IgG1, V domains shown)
# VH: EVQLLESGGGLVQPGGSLRLSCAASGFTFSSYAMSWVRQAPGKGLEWVATISEYGGSYTYYAESVKGRFTISRDNSKNTLYLQMNSLRAEDTAVYYCARPPYDDYYGGFQYWGQGTLVTVSS
# VL: DIQLTQSPSSLSASVGDRVTITCRASKSVSSGGYSYMHWYQQKPGKAPKLLIYLASNLESGVPSRFSGSGSGTDFTLTISSVQPEDFATYYCQHNRELPSTFGQGTKLEIK
# notes: also called mAb 3F9-18
# B2: 3F9-12 (antibody, human IgG1, V domains shown)
# VH: B1 VH with Q110R
# VL: B1 VL with S100P
# notes: also called mAb 3F9-12
# B3: 3F9-23 (antibody, human IgG1, V domains shown)
# VH: B1 VH
# VL: B1 VL with S100A
# notes: also called mAb 3F9-23
# B4: 3F9-20 (antibody, human IgG1, V domains shown)
# VH: B1 VH
# VL: B1 VL with S100P
# notes: also called mAb 3F9-20
# B5: 3F9-25 (antibody, human IgG1, V domains shown)
# VH: B1 VH
# VL: B1 VL with S100W
# notes: also called mAb 3F9-25
# B6: 3F9-21 (antibody, human IgG1, V domains shown)
# VH: B1 VH
# VL: B1 VL with S100T
# notes: also called mAb 3F9-21
# B7: 3F9-17 (antibody, human IgG1, V domains shown)
# VH: B1 VH with Q110R
# VL: B1 VL with S100W
# notes: also called mAb 3F9-17
# B8: 3F9-1 (antibody, human IgG1, V domains shown)
# VH: B1 VH with Q110A
# VL: B1 VL
# notes: also called mAb 3F9-1
# B9: 3F9-7 (antibody, human IgG1, V domains shown)
# VH: B1 VH with Q110A
# VL: B1 VL with S100A
# notes: also called mAb 3F9-7
# B10: 3F9-8 (antibody, human IgG1, V domains shown)
# VH: B1 VH with Q110A
# VL: B1 VL with S100G
# notes: also called mAb 3F9-8
# B11: 3F9-15 (antibody, human IgG1, V domains shown)
# VH: B1 VH with Q110R
# VL: B1 VL with S100A
# notes: also called mAb 3F9-15
# B12: 3F9-3 (antibody, human IgG1, V domains shown)
# VH: B1 VH with Q110A
# VL: B1 VL with S100I
# notes: also called mAb 3F9-3
# B13: 3F9-13 (antibody, human IgG1, V domains shown)
# VH: B1 VH with Q110R
# VL: B1 VL with S100T
# notes: also called mAb 3F9-13
# B14: 3F9-16 (antibody, human IgG1, V domains shown)
# VH: B1 VH with Q110R
# VL: B1 VL with S100G
# notes: also called mAb 3F9-16
# B15: 3F9-6 (antibody, human IgG1, V domains shown)
# VH: B1 VH with Q110A
# VL: B1 VL with S100V
# notes: also called mAb 3F9-6
# B16: 3F9-2 (antibody, human IgG1, V domains shown)
# VH: B1 VH with Q110A
# VL: B1 VL with S100C
# notes: also called mAb 3F9-2
# B17: 3F9-5 (antibody, human IgG1, V domains shown)
# VH: B1 VH with Q110A
# VL: B1 VL with S100T
# notes: also called mAb 3F9-5
# B18: 3F9-19 (antibody, human IgG1, V domains shown)
# VH: B1 VH
# VL: B1 VL with S100I
# notes: also called mAb 3F9-19
# B19: 3F9-24 (antibody, human IgG1, V domains shown)
# VH: B1 VH
# VL: B1 VL with S100G
# notes: also called mAb 3F9-24
# B20: 3F9-10 (antibody, human IgG1, V domains shown)
# VH: B1 VH with Q110R
# VL: B1 VL
# notes: also called mAb 3F9-10
# B21: 3F9-11 (antibody, human IgG1, V domains shown)
# VH: B1 VH with Q110R
# VL: B1 VL with S100I
# notes: also called mAb 3F9-11
# B22: 3F9-4 (antibody, human IgG1, V domains shown)
# VH: B1 VH with Q110A
# VL: B1 VL with S100P
# notes: also called mAb 3F9-4
# B23: 3F9-9 (antibody, human IgG1, V domains shown)
# VH: B1 VH with Q110A
# VL: B1 VL with S100W
# notes: also called mAb 3F9-9
# Molecular target: T1, histidine-tagged human SIRPA v1 (Novoprotein) (human, UniProt P78324 31-370, limits assumed)
# T1 construct: bought, soluble; also called huSIRPA; soluble huSIRPA; not shown: histidine tag
# Assay: BLI (Octet)
# Procedure: (§1) Initial characterization of affinity matured anti-SIRPA antibodies disclosed herein comprised acquiring antigen affinity measurements using bio-layer interferometry (BLI) on a Pall ForteBio Octet RED96 instrument. Immobilized anti-mouse IgG Fc or anti-human IgG Fc antibodies captured murine anti-SIRPA 3F79 antibody and humanized anti-SIRPA 3F79 antibody on biosensors, respectively. Single cycle kinetics were performed with 25 nM huSIRPA [which variant?] or 50 nM huSIRPB 1 flowed over captured antibody 3F79 to record traces. Data analysis was performed using ForteBio Data Analysis Software, version 9.0. Standard kinetic buffer (PBS, 0.100 BSA, 0.02% Tween-20, pH 7.2) was used for the assay and for preparing reagents. […] 50 nM of histidine-tagged human SIRPA vi or human SIRPB1 (Novoprotein, Summit, NJ, USA) were then bound to the captured anti-SIRPA antibody coated surface (200 s association time, 900 s dissociation time). […] Single-curve kinetic analysis was performed using a 1:1 interaction model to extract association and dissociation rate constants (ka and kd, respectively) for each antibody. Affinity constants (KD) were calculated from the ratio kd/ka.
# T1 sequence (P78324 31-370 limits assumed): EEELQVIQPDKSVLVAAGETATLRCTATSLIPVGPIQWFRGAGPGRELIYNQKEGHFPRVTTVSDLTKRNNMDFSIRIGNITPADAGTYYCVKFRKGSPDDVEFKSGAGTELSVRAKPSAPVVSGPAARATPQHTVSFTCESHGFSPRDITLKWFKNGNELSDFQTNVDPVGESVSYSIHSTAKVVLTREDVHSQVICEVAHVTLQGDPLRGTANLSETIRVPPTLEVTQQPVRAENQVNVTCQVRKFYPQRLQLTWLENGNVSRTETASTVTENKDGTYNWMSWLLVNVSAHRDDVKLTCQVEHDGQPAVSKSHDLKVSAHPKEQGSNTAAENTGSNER
row,Binder,fold increase in affinity relative to parental h3F9 [fold]
1,B1,~10
2,B2,~10
3,B3,~10
4,B4,~10

# Molecular target: T2, human SIRPA on human macrophages (primary monocyte-derived macrophages; U937 line) (human, UniProt P78324 31-504)
# Assay: cell-based or functional assay
# T2 sequence (P78324 31-370): as the sequence (P78324 31-370 limits assumed) above
Binder,"SIRPA IC50 (nM), downregulation on U937 cells [nM]","SIRPA Max % DR, U937 cells [%]"
B1,2.19,71
B4,0.152,75

# Molecular target: T2, human SIRPA on human macrophages …
# Assay: cell-based or functional assay
# Remark: another data set of the same source
Binder,"Phagocytosis, fold increase over baseline activity [fold]","SIRPA IC50 (nM), downregulation on human primary macrophages [nM]","SIRPA Max % DR, human primary macrophages [%]"
B1,1.52,0.0174,90
B4,1.62,0.0283,90

# Molecular target: T3, human SIRPA v1 on BWZ cells (BWZ-huSIRPA) (human, UniProt P78324 31-504)
# T3 construct: also called BWZ cells overexpressing human SIRPA; BWZ-huSIRPA v1 cells
# Assay: flow cytometry titration on BWZ-huSIRPA cells, 4 C
# Procedure: After addition of fluorescently labeled secondary antibody and brief washing steps, MFI values as a function of titrated antibody concentration was recorded via FACS analysis. […] Receptor bound antibodies were detected by staining cells with anti-human IgG PE secondary antibody. Curves were fit using nonlinear regression analysis with Graphpad Prism 6 software.
# T3 sequence (P78324 31-504): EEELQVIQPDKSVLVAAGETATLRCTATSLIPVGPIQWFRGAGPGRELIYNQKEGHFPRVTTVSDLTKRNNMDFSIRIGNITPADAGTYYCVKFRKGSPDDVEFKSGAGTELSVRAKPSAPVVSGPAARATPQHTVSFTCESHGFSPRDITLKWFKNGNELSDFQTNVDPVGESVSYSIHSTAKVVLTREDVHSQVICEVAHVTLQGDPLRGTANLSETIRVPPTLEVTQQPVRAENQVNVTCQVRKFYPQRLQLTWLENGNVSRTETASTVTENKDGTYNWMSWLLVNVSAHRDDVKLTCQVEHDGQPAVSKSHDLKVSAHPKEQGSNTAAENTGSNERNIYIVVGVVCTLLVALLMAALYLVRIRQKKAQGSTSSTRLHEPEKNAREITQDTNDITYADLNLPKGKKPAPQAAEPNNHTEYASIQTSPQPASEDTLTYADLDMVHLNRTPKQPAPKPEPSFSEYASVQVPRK
row,Binder,EC50 [nM]
1,B5,0.96
2,B1,0.51
3,B6,0.64
4,B7,0.61
5,B4,0.49

# Molecular target: T1, histidine-tagged human SIRPA v1 …
# Assay: BLI (Octet), antibody on anti-human IgG Fc sensor, His-huSIRPA in solution, single-curve 1:1 fit
# Procedure: as §1
Binder,Kd [nM],koff [s⁻¹],kon [M⁻¹ s⁻¹]
B8,2.09,0.000222,106000
B5,1.06,0.000162,153000
B9,1.81,0.00018,99200
B10,3.6,0.000276,76600
B11,6.28,0.000362,57600
B12,4.43,0.000416,93900
B13,1.38,0.000201,146000
B14,1.27,0.000151,119000
B1,0.419,5.74e-05,137000
B15,1.65,0.000192,116000
B16,2.06,0.000222,108000
B6,1.03,0.000152,148000
B2,0.429,5.96e-05,139000
B17,2.95,0.000276,93600
B7,1.7,0.000238,140000
B18,1.29,0.000181,141000
B19,1.07,0.000155,144000
B20,1.51,0.000201,134000
B3,0.539,9.11e-05,169000
B21,1.43,0.000192,134000
B4,0.85,0.000128,150000
B22,1.79,0.000203,113000
B23,3.38,0.000302,89400

# From patent publication US20240301071A1 (Alector, published 2024)
